Experimental data taken from patent US20170014503A1.
Where no end group is shown, it is not given here.

Molecular target: 2F5 mAb
Assay: cell-based or functional assay

B1: SP62 peptide gp41 652-671, biotinylated (peptide)
peptide: QQEKNEQELLELDKWASLWN
modifications: not fully specified
- IC50 of 2F5 mAb against TND-669S Env-pseudovirus after pre-absorption with 0.3 µM peptide: 0.911
